The labels stand for the following.
T1: TNFR1 (Homo sapiens, UniProt P19438)
T1 chain: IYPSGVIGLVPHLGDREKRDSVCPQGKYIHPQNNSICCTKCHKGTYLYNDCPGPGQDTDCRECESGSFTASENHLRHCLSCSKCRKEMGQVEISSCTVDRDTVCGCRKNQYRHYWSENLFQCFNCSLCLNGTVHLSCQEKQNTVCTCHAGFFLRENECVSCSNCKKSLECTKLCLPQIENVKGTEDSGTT

B1: A106M (designed binder)
chain: MTLQELLREEALRRAEAEAFRYALELLAEKFPEQKEYLLDLAEEIESQIRSLSGVDVEDVRKFLDKEWAWVKELLAEHPAELAEVEAARAARLAELRAEVEAKVAM
B2: L38N (designed binder)
chain: MTLQELLREEALRRAEAEAFRYALELLAEKFPEQKEYNLDLAEEIESQIRSLSGVDVEDVRKFLDKEWAWVKELLAEHPAELAEVEAARAARLAELRAEVEAKVAA
B3: A90L (designed binder)
chain: MTLQELLREEALRRAEAEAFRYALELLAEKFPEQKEYLLDLAEEIESQIRSLSGVDVEDVRKFLDKEWAWVKELLAEHPAELAEVEAARLARLAELRAEVEAKVAA
B4: V85R (designed binder)
chain: MTLQELLREEALRRAEAEAFRYALELLAEKFPEQKEYLLDLAEEIESQIRSLSGVDVEDVRKFLDKEWAWVKELLAEHPAELAEREAARAARLAELRAEVEAKVAA
B5: R61V (designed binder)
chain: MTLQELLREEALRRAEAEAFRYALELLAEKFPEQKEYLLDLAEEIESQIRSLSGVDVEDVVKFLDKEWAWVKELLAEHPAELAEVEAARAARLAELRAEVEAKVAA
B6: R92F (designed binder)
chain: MTLQELLREEALRRAEAEAFRYALELLAEKFPEQKEYLLDLAEEIESQIRSLSGVDVEDVRKFLDKEWAWVKELLAEHPAELAEVEAARAAFLAELRAEVEAKVAA
B7: V71R (designed binder)
chain: MTLQELLREEALRRAEAEAFRYALELLAEKFPEQKEYLLDLAEEIESQIRSLSGVDVEDVRKFLDKEWAWRKELLAEHPAELAEVEAARAARLAELRAEVEAKVAA
B8: L24D (designed binder)
chain: MTLQELLREEALRRAEAEAFRYADELLAEKFPEQKEYLLDLAEEIESQIRSLSGVDVEDVRKFLDKEWAWVKELLAEHPAELAEVEAARAARLAELRAEVEAKVAA
B9: E16I (designed binder)
chain: MTLQELLREEALRRAIAEAFRYALELLAEKFPEQKEYLLDLAEEIESQIRSLSGVDVEDVRKFLDKEWAWVKELLAEHPAELAEVEAARAARLAELRAEVEAKVAA
B10: E95K (designed binder)
chain: MTLQELLREEALRRAEAEAFRYALELLAEKFPEQKEYLLDLAEEIESQIRSLSGVDVEDVRKFLDKEWAWVKELLAEHPAELAEVEAARAARLAKLRAEVEAKVAA
B11: S51C (designed binder)
chain: MTLQELLREEALRRAEAEAFRYALELLAEKFPEQKEYLLDLAEEIESQIRCLSGVDVEDVRKFLDKEWAWVKELLAEHPAELAEVEAARAARLAELRAEVEAKVAA
B12: L52R (designed binder)
chain: MTLQELLREEALRRAEAEAFRYALELLAEKFPEQKEYLLDLAEEIESQIRSRSGVDVEDVRKFLDKEWAWVKELLAEHPAELAEVEAARAARLAELRAEVEAKVAA
B13: D65I (designed binder)
chain: MTLQELLREEALRRAEAEAFRYALELLAEKFPEQKEYLLDLAEEIESQIRSLSGVDVEDVRKFLIKEWAWVKELLAEHPAELAEVEAARAARLAELRAEVEAKVAA
B14: L75R (designed binder)
chain: MTLQELLREEALRRAEAEAFRYALELLAEKFPEQKEYLLDLAEEIESQIRSLSGVDVEDVRKFLDKEWAWVKELRAEHPAELAEVEAARAARLAELRAEVEAKVAA

The assay has as its target T1, TNFR1. Nature of the assay: yeast display SC50.
In the case of B1, the “apparent Kd (screen)” value was found to be 0.718 nM.
The figure for B2 is 1.86 nM; for B3 it is 0.653 nM.
The figure for B4 is 13.8 nM; for B5 it is 0.593 nM; for B6 it is 0.49 nM.
The result for B7 reads 24.4 nM; that for B8, 1.86 nM; that for B9, 0.539 nM.
Turning to B10, the “apparent Kd (screen)” value was 0.539 nM.
The result for B11 reads 1.05 nM; that for B12, 11.4 nM.
On to B13, for which the “apparent Kd (screen)” value stood at 0.405 nM.
The figure for B14 is 0.653 nM.

The record behind these values is paper PMC12416549 (2024).
